Test results from patent US9938503B2, “Differentiation of human iPS cells to human alveolar type II via definitive endoderm” (YALE UNIVERSITY, priority 2012, dated 2018).

Assays:
iPSC-AETII cells = assay: Differentiation of iPSC-derived AETII cells to AETI cells with IWR-1; assay type: cell-based, human
Description: Differentiated cells at day 22 were then maintained in DMEM medium with 10% FBS, 2 mM L-glutamine, 1 mM nonessential amino acids, 1% antibiotic-antimycotic and […] IWR-1 for 7 days.
(§1) For flow cytometry, cells were dissociated into single-cell suspensions by incubation with 0.25% trypsin for 2 min, and fixed (Fixation/Permeabilization kit, BD Biosciences). After blocking for 30 min on ice, the cells were incubated with primary antibody in blocking solution for 30 min on ice. The cells were resuspended in 350 μl of Perm/Wash buffer after incubation with conjugated secondaries for 30 min on ice, washed twice, and analyzed by flow cytometry. See Table 1 for antibody information.
(§2) Total RNA was extracted using the RNeasy Mini Kit from Qiagen, following the manufacturer's instructions. First-strand complementary DNA (cDNA) was synthesized with random hexamers as primers, using SuperScript First-Strand Synthesis System according to manufacturer's protocol (Invitrogen). Each sample was run in triplicate with iQ™ SYBR Green Supermix (Bio-Rad). PCR conditions included an initial denaturation step of 4 min at 95° C., followed by 40 cycles of PCR consisting of 15s at 95° C., 30 s at 60° C., and 30 s at 72° C. Average threshold cycle (Ct) values from the triplicate PCR reactions for a gene of interest (GOI) were normalized against average GAPDH Ct values from the same cDNA sample. Fold change of GOI transcript levels between sample A and sample B equals 2^−ΔΔCt, where ΔCt=Ct(GOI)−Ct(GAPDH), and ΔΔCt=ΔCt(A)−ΔCt(B).

iPSC-derived DE cells = assay: Extracellular matrix protein effects on DE cell adhesion and differentiation; assay type: cell-based, human; conditions: ECM-coated plates, media with NOGGIN/SB-431542
Description: (§3) DE generated by exposure to activin A were trypsinized, reseeded at a ratio of 1:1-2 on human ECM protein-coated plates and differentiated to anterior foregut endoderm with IMDM+5% FBS, 2 mM L-glutamine, 1 mM nonessential amino acids, 1% antibiotic-antimycotic supplemented with 200 ng/ml NOGGIN and […] SB-431542 for 2 days (Longmire T A, et al. 2012. Cell Stem Cell 10(4):398-411, Green M D, et al. 2011. Nat Biotechnol 29(3):267-272).
as §2, with “ΔΔCt=ΔCt(A)−ΔCt(B). […]” for “ΔΔCt=ΔCt(A)−ΔCt(B).”

[1] = system: human iPS cells (C1 and C2 clones); assay: Differentiation of iPS cells to definitive endoderm with activin A, flow cytometry; assay type: cell-based; conditions: for endodermal cells based on dual expression of SOX17 and FOXA2: day 6
Description: Human iPSCs were differentiated to alveolar epithelium in a directed differentiation protocol via definitive endoderm (DE) and anterior foregut endoderm (AFE). iPS cells were differentiated towards definitive endoderm under conditions described previously (Duan Y, et al. 2010. Stem Cells 28(4):674-686, Kubo A, et al. 2004. Development. 131(7):1651-1662). Briefly, h-iPSC were cultured in RPMI 1640 medium supplemented with 100 ng/ml activin A, 2 mM L-glutamine and 1% antibiotic-antimycotic for 48 hours; 1xB27 supplement, 0.5 mM sodium butyrate and 0.1% FBS were added into the same medium and the cells were cultured for another 4 days, with daily medium changes (D'Amour K A, et al. 2005. Nat Biotechnol 23(12):1534-1541).
as §1

[2] = system: iPSC-derived definitive endoderm cells; assay: Differentiation of definitive endoderm to anterior foregut endoderm with NOGGIN/SB-431542, flow cytometry; assay type: cell-based, human
Description: as §3, §1

[3] = 100 mM IWR-1 for 7 days from day 22, flow cytometry, C1 clone
[4] = C1 clone, day 6, 100 ng/ml activin A, flow cytometry
[5] = C2 clone, day 6, 100 ng/ml activin A, flow cytometry
[6] = continuous activin A from day 6 to day 8 without NOGGIN/SB-431542

Molecule: O=C(Nc1cccc2cccnc12)c1ccc(N2C(=O)[C@@H]3[C@H](C2=O)[C@@H]2C=C[C@H]3C2)cc1 [IWR-1]
- cells expressing T1α (iPSC-AETII cells; [3]): ≤ 88%
- cells positive for aquaporin-5 (AQ5) (iPSC-AETII cells; [3]): up to 92%
- cells positive for caveolin-1 (iPSC-AETII cells; [3]): ≤ 98%
- AETI cells positive for the type I markers T1α and caveolin-1 (iPSC-AETII cells; AETII exposed to Wnt/β-catenin inhibitor): more than 90%
- AETI markers AQ5, T1α and caveolin-1 by immunostaining (iPSC-AETII cells; IWR-1 treated versus untreated AETII): significant increase
- AETII cell marker SPC (iPSC-AETII cells; after IWR-1, flow cytometry): decreased significantly
- expression of type I cell markers by quantitative RT-PCR (iPSC-AETII cells; iPSC-AETII cells exposed to IWR-1 versus freshly isolated human primary alveolar type I cells): comparable to expression levels of freshly isolated human primary alveolar type I cells

Molecule: laminin
- DE cell attachment (iPSC-derived DE cells): attach well

Molecule: Fibronectin
- DE cell attachment (iPSC-derived DE cells): attach well

B1: activin A: soluble cytokine activating the nodal receptor, used at 100 ng/ml to induce definitive endoderm (protein, UniProt P08476 311-426, looked up)
Inhibin beta A chain: GLECDGKVNICCKKQFFVSFKDIGWNDWIIAPSGYHANYCEGECPSHIAGTSGSSLSFHSTVINHYRMRGHSPFANLKSCCVPTKLRPMSMLYYDDGQNIIKKDIQNMIVEECGCS
modifications: Inhibin beta A chain
- endodermal cells based on dual expression of SOX17 and FOXA2 ([1]; C1 clone): more than 85%
- percentage of cells expressing CXCR4 [1, 4]: 92.71±4.0%
- percentage of cells expressing FOXA2 [1, 4]: 87.66±1.2%
- endodermal cells based on dual expression of SOX17 and FOXA2 ([1]; C2 clone): > 89%
- percentage of cells expressing CXCR4 [1, 5]: 87.23±2.0%
- percentage of cells expressing FOXA2 [1, 5]: 83.54±1.8%
- percentage of cells expressing SOX17 [1, 5]: 91.42±3.0%
- cells positive for NKX2.1 ([2]; activin A induced cells without NOGGIN/SB-431542, day 13): < 1%
- FOXA2+/SOX2+ cells [2, 6]: rare
- NKX2.1+ cells [2, 6]: few
